In US20040038338A1, “Influence of LRP cytoplasmic domain on Abeta production” (priority 2001, published 2004):

T1: Fe65 (UniProt O00213 1-710, limits assumed)
T1 construct: also called Fe65 adaptor protein; in vitro translated Fe65
T1 sequence (looked up): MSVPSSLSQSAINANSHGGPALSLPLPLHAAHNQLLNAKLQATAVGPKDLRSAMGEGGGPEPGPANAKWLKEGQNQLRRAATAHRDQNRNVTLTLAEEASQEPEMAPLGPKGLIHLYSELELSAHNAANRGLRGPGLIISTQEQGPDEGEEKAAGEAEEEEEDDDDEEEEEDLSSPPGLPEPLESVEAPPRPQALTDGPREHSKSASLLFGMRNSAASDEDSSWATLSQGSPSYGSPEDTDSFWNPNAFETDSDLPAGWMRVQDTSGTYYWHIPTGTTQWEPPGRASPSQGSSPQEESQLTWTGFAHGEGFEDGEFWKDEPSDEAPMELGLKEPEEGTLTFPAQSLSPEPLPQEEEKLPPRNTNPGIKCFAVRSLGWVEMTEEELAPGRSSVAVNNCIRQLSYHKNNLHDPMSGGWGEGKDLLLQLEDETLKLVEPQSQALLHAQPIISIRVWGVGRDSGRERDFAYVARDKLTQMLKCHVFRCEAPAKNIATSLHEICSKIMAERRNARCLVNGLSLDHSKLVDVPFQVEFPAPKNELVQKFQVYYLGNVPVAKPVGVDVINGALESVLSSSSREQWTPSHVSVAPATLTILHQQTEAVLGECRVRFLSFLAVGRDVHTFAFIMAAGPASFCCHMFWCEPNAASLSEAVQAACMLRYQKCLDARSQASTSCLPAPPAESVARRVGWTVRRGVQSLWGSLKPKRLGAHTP


Legend:
Fe65 = biological target: T1, Fe65; test: GST pull down of in vitro translated Fe65
Aβ release = conditions: exogenous RAP, cells overexpressing APP751; cited from earlier work
APP processing = test: Overexpression of Fe65 in APP751-transfected CHO cells, APPs and Aβ; type: cell-based; conditions: preliminary studies
Excerpt: In the second set of experiments, Inventors determine whether overexpression of Fe65 impairs APP and LRP processing by acting as a dominant or competitive negative mutant. Inventors briefly mentioned the preliminary results above with APPs and Aβ when Fe65 was overexpressed in APP75 1-transfected CHO cells. These studies are repeated for reliable quantitation and other aspects of APP trafficking are examined, as performed in the earlier aims. Inventors also assess the binding and uptake of LRP ligands. To ascertain that these outcomes are due to inhibition by Fe65, Inventors overexpress Fe65 mutants that cannot bind either APP or LRP, i.e., ΔPID2 and ΔPID 1, respectively. If these mutant constructs mimic the results from full length Fe65 even though it cannot bind it's known substrate, then it supports the idea that Fe65 or Fe65L in excess behaves as an inhibitor. […] The premise is that an overabundance of Fe65 result in the failure to link up limiting amounts of LRP with APP. Thus, co-expression of Fe65 with LRP should greatly diminish the effects of Fe65 expressed by itself In the third set of experiments, Inventors test the concept that other APP and LRP interacting proteins with only single binding sites, such as mDab, X11/Mint-1 and JIP-1, compete for binding with Fe65 or Fe65L, and by displacing Fe65, produce a partial loss of function with respect to APP processing. […]

reduction of binding against wild type LRP (Fe65) [%]	Molecule	further results
> 50	GST fusion protein of the LRP cytoplasmic tail with a single alanine substitution at L of the YATL motif (other, not shown: a dimerising Fc or GST; small tags and cut ends, N-terminal GST fusion, not carried in the letters, Position 4510 is derived from the motif's printed limits (4504 to 4510)) KRRVQGAKGFQHQRMTNGAMNVEIGNPTYKMYEGGEPDDVGGLLDADFALDPDKPTNFTNPVYATAYMGGHGSRHSLASTDEKRELLGRGPEDEIGDPLA	–
> 50	GST fusion protein of the LRP cytoplasmic tail with a single alanine substitution at N of the second NPXY motif (other, not shown: a dimerising Fc or GST; small tags and cut ends, N-terminal GST fusion, not carried in the letters, Position 4504 is derived from the motif's printed limits (4504 to 4510)) KRRVQGAKGFQHQRMTNGAMNVEIGNPTYKMYEGGEPDDVGGLLDADFALDPDKPTNFTAPVYATLYMGGHGSRHSLASTDEKRELLGRGPEDEIGDPLA	–
> 50	GST fusion protein of the LRP cytoplasmic tail with a single alanine substitution at Y of the second NPXY motif (other, not shown: a dimerising Fc or GST; small tags and cut ends, N-terminal GST fusion, not carried in the letters) KRRVQGAKGFQHQRMTNGAMNVEIGNPTYKMYEGGEPDDVGGLLDADFALDPDKPTNFTNPVAATLYMGGHGSRHSLASTDEKRELLGRGPEDEIGDPLA	–
–	RAP: 39 kDa receptor associated protein, an LRP chaperone molecule that blocks binding of all known LRP ligands (protein, UniProt P30533 35-357, looked up) Alpha-2-macroglobulin …: YSREKNQPKPSPKRESGEEFRMEKLNQLWEKAQRLHLPPVRLAELHADLKIQERDELAWKKLKLDGLDEDGEKEARLIRNLNVILAKYGLDGKKDARQVTSNSLSGTQEDGLDDPRLEKLWHKAKTSGKFSGEELDKLWREFLHHKEKVHEYNVLLETLSRTEEIHENVISPSDLSDIKGSVLHSRHTELKEKLRSINQGLDRLRRVSHQGYSTEAEFEEPRVIDLWDLAQSANLTDKELEAFREELKHFEAKIEKHNHYQKQLEIAHEKLRHAESVGDGERVSRSREKHALLEGRTKELGYTVKKHLQDLSGRISRARHNEL	Aβ release (Aβ release): dramatically reduced
–	Fe65: cytosolic adaptor protein with separate binding domains (PID1, PID2) for LRP and APP, overexpressed in cells (protein) MSVPSSLSQSAINANSHGGPALSLPLPLHAAHNQLLNAKLQATAVGPKDLRSAMGEGGGPEPGPANAKWLKEGQNQLRRAATAHRDQNRNVTLTLAEEASQEPEMAPLGPKGLIHLYSELELSAHNAANRGLRGPGLIISTQEQGPDEGEEKAAGEAEEEEEDDDDEEEEEDLSSPPGLPEPLESVEAPPRPQALTDGPREHSKSASLLFGMRNSAASDEDSSWATLSQGSPSYGSPEDTDSFWNPNAFETDSDLPAGWMRVQDTSGTYYWHIPTGTTQWEPPGRASPSQGSSPQEESQLTWTGFAHGEGFEDGEFWKDEPSDEAPMELGLKEPEEGTLTFPAQSLSPEPLPQEEEKLPPRNTNPGIKCFAVRSLGWVEMTEEELAPGRSSVAVNNCIRQLSYHKNNLHDPMSGGWGEGKDLLLQLEDETLKLVEPQSQALLHAQPIISIRVWGVGRDSGRERDFAYVARDKLTQMLKCHVFRCEAPAKNIATSLHEICSKIMAERRNARCLVNGLSLDHSKLVDVPFQVEFPAPKNELVQKFQVYYLGNVPVAKPVGVDVINGALESVLSSSSREQWTPSHVSVAPATLTILHQQTEAVLGECRVRFLSFLAVGRDVHTFAFIMAAGPASFCCHMFWCEPNAASLSEAVQAACMLRYQKCLDARSQASTSCLPAPPAESVARRVGWTVRRGVQSLWGSLKPKRLGAHTP	APPs secretion (APP processing): augmented; Aβ release (APP processing): reduction
